# “Also recorded” adds a separate entry of the source.
# B1: ApoE CT: C-terminal fragment of ApoE, positions 216-299 of SEQ ID NO: 12; SEQ ID NO: 33 (protein)
# chain: ARMEEMGSRTRDRLDEVKEQVAEVRAKLEEQAQQIRLQAEAFQARLKSWFEPLVEDMQRQWAGLVEKVQAAVGTSAAPVPSDNH
# Key:
# [1] = tested on: human APP co-expressed in HEK 293T cells; assay: α-CTF produced by APP co-expressed in HEK 293T cells (Western blot); type: cell-based; settings: for α-CTF produced by co-expressed APP: Western blot
# Experimental: • a) A plasmid expressing the target protein in mammalian cells was constructed, and the protein expression promoter is CAG. • b) The target protein was expressed in HEK 293T cell line. Cells were subcultured one day before transfection, and transfection was performed when the degree of cell adhesion reached 70%-80%. The transfection reagent was lipofectamine2000 (ThermoFisher). • c) 4-6 hours post transfection, the medium were replaced with fresh cell culture medium. • d) 36-48 hours post transfection, the cells were lysed (10% 1M tris-HCl (pH=6.8), 4% SDS, 20% glycerol, 0.01% bromophenol blue), and the protein samples were collected and used for Western blot or stored in a −80° C. freezer. • e) Polyacrylamide gel electrophoresis. Before protein loading, the protein was boiled at 98° C. for 10 min, and then centrifuged at 12000 rpm for 10 min. Electrophoresis: 80V for the upper stacking gel; 120V for the lower separating gel. • f) Protein transfer. The filter paper was soaked in the electrophoresis solution before use, and the PVDF membrane was put in methanol for 10s to activate, and the gel after electrophoresis was taken out from the electrophoresis tank, put in the order of filter paper—PVD membrane—gel-filter paper from bottom to top, and they were put into the transfer instrument, with transferring in constant current at 0.1 A for 70 min. • g) Blocking and antibody incubation: the transferred PVDF membrane was placed in 5% BSA/TBST blocking solution, and blocked on a shaker at room temperature for 1 hour. The primary antibody was used to incubate at 4° C. overnight on a shaker (12-16 h); 1×TBST was used to wash three times, once every 10 minutes; the secondary antibody was used to incubate, shaked at room temperature for 1-2 h; 1×TBST was used to wash three times, once every 10 minutes. • h) Imaging by development: development was performed with ECL chemiluminescence hypersensitive chromogenic reagent.
# (§1) Plasmids were transfected in HEK 293T or N2A cells for 36-48 hours and then lysed in cell lysis buffer [10% 1M tris-HCl (pH=6.8), 4% SDS, 20% glycerol, 0.01% bromophenol blue]. Lysates were shaken at room temperature for 10 min, then boiled for 10 min, and centrifuged at 12,000×g for 10 min. Proteins were run on 8% or 12% Tris-glycine SDS-PAGE and transferred to PVDF membranes (Life Technologies). Samples were incubated overnight at 4° C. with primary antibody diluted in 5% BSA buffer (in 1×TBST). After washing 3 times with 1×TBST, they were incubated with secondary antibody diluted in 5% BSA buffer (in 1×TBST) for 2 hours at room temperature. Finally, after washing 3 times with 1×TBST, the signal was detected by ECL Western blotting substrate (Solarbio, PE0010).
# (§2) Data were analyzed by GraphPad Prism software (v6) using unpaired, paired, or one-sample t-tests. Aβ40 and Aβ42 levels were normalized to the corresponding GFP controls. α-CTF levels were normalized to FL-APP and corresponding GFP controls. All data are represented as mean±SEM. Statistical significance was defined as p<0.05. One, two, three and four stars (*) in the graph indicate p-values <0.05, <0.01, <0.001 and <0.0001, respectively.
# [2] = tested on: APP co-expressed in mouse neuron cell line N2A; assay: α-CTF produced by APP co-expressed in N2A cells (Western blot); type: cell-based
# Experimental: as §1, §2
# [3] = tested on: APP and BACE1 co-expressed in N2A cells; assay: Aβ40 ELISA in N2A cells co-expressing APP and BACE1; type: cell-based, mouse
# Experimental: 48 hours after transfection of HEK 293T cells and N2A cells, or 4.5 days after lentivirus infection of neurons, media and lysates were collected. Aβ40 and Aβ42 in the culture medium and cell lysates were detected by an Aβ ELISA kit as indicated in the protocol. (Invitrogen Technology; KHB3481 for human Aβ40, KHB3441 for human Aβ42 and KMB3481 for mouse Aβ40).
# as §2
molecule,measurement,setting,value
B1,level of α-CTF compared with ApoE2,[1],significantly increases the level of α-CTF
same,increase of α-CTF in the presence of GI254023X,[1]; 1 μM ADAM10 inhibitor GI254023X,approximately 4 fold
same,α-CTF in the presence of PF03084014,[1]; 1 μM γ-secretase inhibitor PF03084014,failed to further increase α-CTF
same,α-CTF when β-secretase inhibited by AZD3839,[1]; 5 μM AZD3839,still increases α-CTF
same,α-CTF produced by APP co-expressed with PS1,"[1]; APP and PS1 co-expressed, PF03084014 at 1 μM",significantly increases α-CTF; also recorded: can increase the production of α-CTF
same,γ-cleavage of APP (α-CTF) when co-expressed with γ-secretase,"[1]; APP, γ-secretase and ApoE CT co-expressed",still inhibited γ-cleavage of APP
same,α-CTF produced by co-expressed APP,[1]; vs GFP control,significantly increased α-CTF; also recorded: increased the α-CTF
same,α-CTF produced by co-expressed APP,"[1]; vs GFP control, listed as human ApoE CT",also increase α-CTF
same,increase in α-CTF levels,[1]; vs GFP control,more than 6 fold
same,α-CTF level,[1]; vs GFP control,more than 5 times the original level
same,level of α-CTF compared with ApoE2,[2],significantly increases the level of α-CTF
same,α-CTF produced by co-expressed APP,"[2]; Western blot, vs GFP control",significantly increases α-CTF
same,total Aβ40,[3],significantly reduced

# From US20250108100A1, “C-TERMINAL FRAGMENT OF APOLIPOPROTEIN E AND APPLICATION THEREOF IN INHIBITING y-SECRETASE ACTIVITY” (SYNPHATEC (SHANGHAI) BIOPHARMACEUTICAL TECHNOLOGY CO., LTD., priority 2022, published 2025)
